Target: 20S proteasome core (mouse (endogenous in mouse retina)) (UniProt Q9Z2U0)
Assay: SEC; retinal lysates of WT or PA28α overexpressing mice on Superose-6 (Fig. 1) or Superose-6 Increase; 50 mM Tris-HCl pH 7.4, 40 mM NaCl, 5 mM MgCl2, 10% glycerol, 1 mM DTT, 1 mM ATP; 0.5 ml fractions western-blotted for β1 (20S), PSMD11 (19S) and PA28α (11S)

UniProt Q9Z2U0, sequence (Q9Z2U0 whole entry, looked up): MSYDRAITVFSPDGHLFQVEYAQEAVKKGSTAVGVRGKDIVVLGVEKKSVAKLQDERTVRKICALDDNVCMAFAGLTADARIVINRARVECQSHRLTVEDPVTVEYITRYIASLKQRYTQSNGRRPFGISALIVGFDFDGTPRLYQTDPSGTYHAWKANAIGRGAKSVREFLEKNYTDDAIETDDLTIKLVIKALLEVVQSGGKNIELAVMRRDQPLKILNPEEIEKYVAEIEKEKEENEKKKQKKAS

Substance	percent of PA28α co-eluting with 20S [%]	percent of 20S cores co-eluting with 19S caps [%]
11S caps formed upon PA28α overexpression (homomeric, PA28α subunits alone) (from UniProt P97371 1-249) (complex)	2	
19S proteasome cap (from UniProt Q8BG32 1-422; Q8BJY1 1-504; Q99JI4 1-389; Q3TXS7 1-953) (complex)		45

Reference: article PMC5928105
